Laboratory results: the supplement of paper PMC9112550, “Optimization of the antimicrobial peptide Bac7 by deep mutational scanning” (BMC Biology, 2022)

The sequences below were run on Escherichia coli TOP10 (assay: shrunken log2 fold change of peptide-encoding DNA abundance (4.5 h post-induction vs induction); higher = less antimicrobial activity (less host growth inhibition)). Conditions: time post-induction: 4.5 h; library: site-saturation at positions 5, 18, 19, 20.
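Also: peptides expressed intracellularly from a pBAD plasmid library in pooled LB shake-flask culture, induced with 0.3% L-arabinose, DNA abundance read by NGS, three biological replicates, DESeq2 with apeglm shrinkage.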

Sequence	shrunken log2 fold change
RRIRCRPPRLPRPRPRPGPYPRP	-0.385
RRIRCRPPRLPRPRPRPGQRPRP	0.0965
RRIRCRPPRLPRPRPRPGRGPRP	1.18
RRIRCRPPRLPRPRPRPGRNPRP	-0.0027
RRIRCRPPRLPRPRPRPGRTPRP	-0.106
RRIRCRPPRLPRPRPRPGRWPRP	0.434
RRIRCRPPRLPRPRPRPGSNPRP	-0.915
RRIRCRPPRLPRPRPRPGTVPRP	-0.339
RRIRCRPPRLPRPRPRPGYCPRP	-0.0918
RRIRCRPPRLPRPRPRPGYIPRP	-0.258
RRIRCRPPRLPRPRPRPHAEPRP	0.315
RRIRCRPPRLPRPRPRPHATPRP	0.204
RRIRCRPPRLPRPRPRPHCNPRP	-0.395
RRIRCRPPRLPRPRPRPHDKPRP	-0.363
RRIRCRPPRLPRPRPRPHESPRP	-0.123
RRIRCRPPRLPRPRPRPHFQPRP	-0.511
RRIRCRPPRLPRPRPRPHFSPRP	-0.473
RRIRCRPPRLPRPRPRPHFWPRP	0.125
RRIRCRPPRLPRPRPRPHGCPRP	-0.037
RRIRCRPPRLPRPRPRPHIGPRP	0.000633
RRIRCRPPRLPRPRPRPHIKPRP	-0.788
RRIRCRPPRLPRPRPRPHIRPRP	-0.585
RRIRCRPPRLPRPRPRPHKVPRP	-0.446
RRIRCRPPRLPRPRPRPHLFPRP	-0.198
RRIRCRPPRLPRPRPRPHLQPRP	-0.319

Sequence	shrunken log2 fold change
RRIRCRPPRLPRPRPRPHLWPRP	0.129
RRIRCRPPRLPRPRPRPHNSPRP	-0.273
RRIRCRPPRLPRPRPRPHPMPRP	-0.243
RRIRCRPPRLPRPRPRPHPNPRP	-0.186
RRIRCRPPRLPRPRPRPHQAPRP	-0.0274
RRIRCRPPRLPRPRPRPHQFPRP	0.0354
RRIRCRPPRLPRPRPRPHRNPRP	-0.791
RRIRCRPPRLPRPRPRPHSDPRP	-0.412
RRIRCRPPRLPRPRPRPHTEPRP	-0.273
RRIRCRPPRLPRPRPRPHVAPRP	-0.0172
RRIRCRPPRLPRPRPRPHVNPRP	-0.497
RRIRCRPPRLPRPRPRPHVTPRP	-0.64
RRIRCRPPRLPRPRPRPHWYPRP	-0.714
RRIRCRPPRLPRPRPRPHYCPRP	-0.342
RRIRCRPPRLPRPRPRPHYHPRP	-0.755
RRIRCRPPRLPRPRPRPHYNPRP	-1.32
RRIRCRPPRLPRPRPRPIADPRP	-0.107
RRIRCRPPRLPRPRPRPICPPRP	-0.148
RRIRCRPPRLPRPRPRPIDEPRP	-0.0366
RRIRCRPPRLPRPRPRPIENPRP	-0.209
RRIRCRPPRLPRPRPRPIESPRP	0.204
RRIRCRPPRLPRPRPRPIFMPRP	-0.269
RRIRCRPPRLPRPRPRPIGTPRP	-0.279
RRIRCRPPRLPRPRPRPIHTPRP	-0.527
RRIRCRPPRLPRPRPRPIIEPRP	-0.851

Sequence	shrunken log2 fold change
RRIRCRPPRLPRPRPRPIIGPRP	-0.304
RRIRCRPPRLPRPRPRPIIPPRP	-0.645
RRIRCRPPRLPRPRPRPIIVPRP	-0.425
RRIRCRPPRLPRPRPRPILDPRP	-0.122
RRIRCRPPRLPRPRPRPILEPRP	-0.247
RRIRCRPPRLPRPRPRPILKPRP	-0.263
RRIRCRPPRLPRPRPRPILQPRP	-0.0117
RRIRCRPPRLPRPRPRPIMSPRP	-0.128
RRIRCRPPRLPRPRPRPIPFPRP	-0.436
RRIRCRPPRLPRPRPRPIPNPRP	0.0105
RRIRCRPPRLPRPRPRPIPYPRP	-0.0796
RRIRCRPPRLPRPRPRPISCPRP	-0.0979
RRIRCRPPRLPRPRPRPITLPRP	-0.441
RRIRCRPPRLPRPRPRPITPPRP	-0.219
RRIRCRPPRLPRPRPRPIVLPRP	-0.456
RRIRCRPPRLPRPRPRPIVQPRP	0.0655
RRIRCRPPRLPRPRPRPIWCPRP	2.08e-06
RRIRCRPPRLPRPRPRPIYQPRP	-0.306
RRIRCRPPRLPRPRPRPKCRPRP	-0.281
RRIRCRPPRLPRPRPRPKEKPRP	0.00563
RRIRCRPPRLPRPRPRPKFIPRP	-0.653
RRIRCRPPRLPRPRPRPKFKPRP	-0.287
RRIRCRPPRLPRPRPRPKHGPRP	-0.116
RRIRCRPPRLPRPRPRPKHMPRP	-0.25
RRIRCRPPRLPRPRPRPKIGPRP	0.0398

Sequence	shrunken log2 fold change
RRIRCRPPRLPRPRPRPKKFPRP	-0.00227
RRIRCRPPRLPRPRPRPKLDPRP	0.125
RRIRCRPPRLPRPRPRPKMKPRP	-0.269
RRIRCRPPRLPRPRPRPKMMPRP	-0.113
RRIRCRPPRLPRPRPRPKMNPRP	-0.415
RRIRCRPPRLPRPRPRPKMPPRP	0.0277
RRIRCRPPRLPRPRPRPKNWPRP	0.331
RRIRCRPPRLPRPRPRPKPFPRP	-0.0386
RRIRCRPPRLPRPRPRPKPMPRP	-0.00253
RRIRCRPPRLPRPRPRPKPNPRP	0.572
RRIRCRPPRLPRPRPRPKPPPRP	0.931
RRIRCRPPRLPRPRPRPKQQPRP	0.143
RRIRCRPPRLPRPRPRPKQWPRP	-0.0437
RRIRCRPPRLPRPRPRPKRHPRP	0.341
RRIRCRPPRLPRPRPRPKRNPRP	0.34
RRIRCRPPRLPRPRPRPKRWPRP	0.627
RRIRCRPPRLPRPRPRPKSCPRP	0.0733
RRIRCRPPRLPRPRPRPKTTPRP	-0.000868
RRIRCRPPRLPRPRPRPKTWPRP	0.0688
RRIRCRPPRLPRPRPRPKWHPRP	-0.169
RRIRCRPPRLPRPRPRPKWQPRP	0.0444
RRIRCRPPRLPRPRPRPLAHPRP	-0.0666
RRIRCRPPRLPRPRPRPLAIPRP	-0.0224
RRIRCRPPRLPRPRPRPLALPRP	-0.621
RRIRCRPPRLPRPRPRPLASPRP	0.139

Sequence	shrunken log2 fold change
RRIRCRPPRLPRPRPRPLAVPRP	0.0263
RRIRCRPPRLPRPRPRPLCDPRP	0.54
RRIRCRPPRLPRPRPRPLDHPRP	-0.289
RRIRCRPPRLPRPRPRPLDMPRP	-0.549
RRIRCRPPRLPRPRPRPLFPPRP	-0.2
RRIRCRPPRLPRPRPRPLFVPRP	-0.482
RRIRCRPPRLPRPRPRPLFWPRP	0.153
RRIRCRPPRLPRPRPRPLGCPRP	0.347
RRIRCRPPRLPRPRPRPLGYPRP	0.0405
RRIRCRPPRLPRPRPRPLICPRP	-0.499
RRIRCRPPRLPRPRPRPLKWPRP	-0.0792
RRIRCRPPRLPRPRPRPLLAPRP	0.229
RRIRCRPPRLPRPRPRPLLDPRP	0.0618
RRIRCRPPRLPRPRPRPLLVPRP	-0.317
RRIRCRPPRLPRPRPRPLMVPRP	-0.519
RRIRCRPPRLPRPRPRPLNFPRP	-0.0754
RRIRCRPPRLPRPRPRPLNLPRP	-0.489
RRIRCRPPRLPRPRPRPLNTPRP	-0.343
RRIRCRPPRLPRPRPRPLQGPRP	0.0488
RRIRCRPPRLPRPRPRPLQHPRP	-0.0615
RRIRCRPPRLPRPRPRPLRAPRP	1.02
RRIRCRPPRLPRPRPRPLREPRP	0.562
RRIRCRPPRLPRPRPRPLRHPRP	0.479
RRIRCRPPRLPRPRPRPLRMPRP	0.461
RRIRCRPPRLPRPRPRPLRQPRP	0.713

Sequence	shrunken log2 fold change
RRIRCRPPRLPRPRPRPLSSPRP	-0.173
RRIRCRPPRLPRPRPRPLTHPRP	-0.345
RRIRCRPPRLPRPRPRPLTLPRP	-0.582
RRIRCRPPRLPRPRPRPLWKPRP	0.101
RRIRCRPPRLPRPRPRPMACPRP	0.00876
RRIRCRPPRLPRPRPRPMAYPRP	-0.00456
RRIRCRPPRLPRPRPRPMCGPRP	-0.0984
RRIRCRPPRLPRPRPRPMCVPRP	-0.185
RRIRCRPPRLPRPRPRPMDFPRP	-0.151
RRIRCRPPRLPRPRPRPMDLPRP	-0.0384
RRIRCRPPRLPRPRPRPMDYPRP	-0.181
RRIRCRPPRLPRPRPRPMETPRP	-0.0136
RRIRCRPPRLPRPRPRPMFPPRP	-0.511
RRIRCRPPRLPRPRPRPMGHPRP	-0.262
RRIRCRPPRLPRPRPRPMGPPRP	0.128
RRIRCRPPRLPRPRPRPMGRPRP	0.162
RRIRCRPPRLPRPRPRPMILPRP	-0.352
RRIRCRPPRLPRPRPRPMKIPRP	0.13
RRIRCRPPRLPRPRPRPMKKPRP	0.0602
RRIRCRPPRLPRPRPRPMLKPRP	-0.141
RRIRCRPPRLPRPRPRPMLWPRP	-0.00796
RRIRCRPPRLPRPRPRPMMFPRP	0.312
RRIRCRPPRLPRPRPRPMMWPRP	-0.137
RRIRCRPPRLPRPRPRPMPIPRP	-0.197
RRIRCRPPRLPRPRPRPMQDPRP	-0.0947
